Holding throughout (settings): tags: R&D Systems; chain copies: 2
Data set [1] concerns the target T1, NT-3 (neurotrophin-3) (Homo sapiens, UniProt P20783 P20783:139-257).
T1 sequence: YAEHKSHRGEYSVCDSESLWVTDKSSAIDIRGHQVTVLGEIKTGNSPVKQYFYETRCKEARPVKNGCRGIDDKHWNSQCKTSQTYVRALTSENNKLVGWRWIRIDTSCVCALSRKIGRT
The experiment in a line: cell_activity; TF-1. From the text:
(§1) Using TF-1 cells, whether NGF aptamer inhibits BDNF, NT-3, NT-4 was examined. Human receptor genes (TrkB, TrkC, p75) for respective neurotrophic factors were introduced into TF-1 cells (ATCC Number: CRL-2003), which is a human erythroleukemic cell line, by using a retrovirus vector to give cells that highly express these receptors stably. TF-1 cells introduced with TrkB and p75 were used for the evaluation of inhibitory activity against BDNF, TF-1 cells introduced with TrkC and p75 were used for the evaluation against NT-3, and TF-1 cells introduced with TrkB alone were used for the evaluation against NT-4. These cells were suspended in an RPMI-1640 medium containing 20% fetal bovine serum, and seeded in a white 96 well flat-bottom plate at 1000 cells (50 μL) per well. Thereto was added a mixed solution 50 μL of human BDNF (final concentration 0.074 nM) or NT-3 (final concentration 0.074 nM) or NT-4 (final concentration 0.071 nM) and the aptamer (final concentration 1 μM-0.01 nM), which had been pre-reacted at room temperature for 30 min in a serum-free RPMI-1640 medium, 3 days later, 100 μL of CellTiter-Glo reagent for CellTiter-Glo Luminescent Cell Viability Assay (manufactured by Promega) was added to each well, chemiluminescence was measured by a microplate reader. With the amount of luminescence per well obtained by the addition of BDNF or NT-3 or NT-4 alone and culture of the cells for 3 days as inhibitory activity 0%, and that of the well obtained by culture for 3 days without addition of BDNF or NT-3 or NT-4 as inhibitory activity 100%, the inhibitory activity of the aptamer was calculated from the amount of luminescence per well obtained by culturing with the addition of BDNF or NT-3 or NT-4 and the aptamer in mixture. When the inhibitory activity was 0 or below, ‘0%’ is indicated. The 50% inhibitory concentration (IC₅₀) was determined from the concentrations at two, above and below points sandwiching the 50% inhibitory activity. An IC₅₀ value indicated as “>X” means that the inhibitory activity was not more than 50% when the indicated concentration X was the maximum measured concentration. N.D. means not measured.

The target of data set [2] is T2, NT-4 (neurotrophin-4) (Homo sapiens, UniProt P34130 P34130:81-210).
T2 sequence: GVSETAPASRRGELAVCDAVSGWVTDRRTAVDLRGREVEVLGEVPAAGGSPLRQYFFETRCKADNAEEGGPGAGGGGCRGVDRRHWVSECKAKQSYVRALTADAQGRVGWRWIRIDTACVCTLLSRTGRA
The experiment in a line: cell_activity; TF-1.
From the text: as §1

Data set [3] addresses T3, NGF (nerve growth factor) (Homo sapiens, UniProt P01138 P01138:122-241). The experiment in a line: cell_activity; neurite; TF-1 0.034.
Data set [4] has as its target T3, NGF (nerve growth factor). In words: cell_activity; neurite; TF-1 0.085.
Data set [5] concerns the target T3, NGF (nerve growth factor). In words: cell_activity; neurite; TF-1 0.021.
Data set [6] concerns the target T3, NGF (nerve growth factor). In words: cell_activity; neurite; TF-1 0.084. As to the method: With the neurite length per cell obtained by the addition of NGF alone as inhibitory activity 0%, and that of the cell obtained by NGF free culture for 2 days as inhibitory activity 100%, the inhibitory activity of the aptamer was calculated from the neurite length per cell obtained by culturing with the addition of NGF and the aptamer in mixture.
Two NGF receptor (human TrkA and human p75) genes were introduced into TF-1 cells (ATCC Number: CRL-2003), which is a human erythroleukemic cell line, by using a retrovirus vector to give cells that highly express two receptors simultaneously and stably. The cells were suspended in an RPMI-1640 medium containing 20% fetal bovine serum, and seeded in a white 96 well flat-bottom plate at 1000 cells (50 μL) per well. […] With the amount of luminescence per well obtained by the addition of NGF alone and culture of the cells for 3 days as inhibitory activity 0%, and that of the well obtained by NGF free culture for 3 days as inhibitory activity 100%, the inhibitory activity of the aptamer was calculated from the amount of luminescence per well obtained by culturing with the addition of NGF and the aptamer in mixture.

In data set [7] the target is T3, NGF (nerve growth factor). The experiment in a line: cell_activity; neurite; TF-1 <0.03.
Data set [8] has as its target T3, NGF (nerve growth factor). The experiment in a line: cell_activity; neurite; TF-1 0.022.
The target of data set [9] is T3, NGF (nerve growth factor). In words: cell_activity; neurite; TF-1 0.013.
Data set [10] concerns the target T3, NGF (nerve growth factor). In words: SPR; inhibits NGF-receptor binding; inhibits neurite outgrowth at 10 nM. For orientation: Surface plasmon resonance follows binding to a sensor surface in real time, without labels.
The target in data set [11] is T3, NGF (nerve growth factor). In words: SPR; neurite inhibition at 10 nM; no TF-1 inhibition. Here is the method: The cells (2500 cells per well) were cultured for one day in an RPMI-1640 medium containing 2.5% horse serum and 1.25% fetal bovine serum in a 96 well flat-bottom plate coated with collagen type IV. […] Two days later, the cytoplasm and nuclei were stained using Cellomics Neurite Outgrowth Kit (manufactured by Thermo Scientific), and neurite length per cell was measured by Cellomics ArrayScan VTI (manufactured by Thermo Scientific). With the neurite length per cell obtained by the addition of NGF alone as inhibitory activity 0%, and that of the cell obtained by NGF free culture for 2 days as inhibitory activity 100%, the inhibitory activity of the aptamer was calculated from the neurite length per cell obtained by culturing with the addition of NGF and the aptamer in mixture.
Two NGF receptor (human TrkA and human p75) genes were introduced into TF-1 cells (ATCC Number: CRL-2003), which is a human erythroleukemic cell line, by using a retrovirus vector to give cells that highly express two receptors simultaneously and stably. The cells were suspended in an RPMI-1640 medium containing 20% fetal bovine serum, and seeded in a white 96 well flat-bottom plate at 1000 cells (50 μL) per well. […]

T3 sequence (P01138 122-241, one chain of several): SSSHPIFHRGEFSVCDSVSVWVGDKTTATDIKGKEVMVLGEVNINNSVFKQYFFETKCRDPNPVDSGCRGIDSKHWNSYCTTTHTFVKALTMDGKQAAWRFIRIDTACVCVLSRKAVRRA

In general, IC50 refers to the point on the concentration scale where inhibition reaches its midpoint. For GGGUCCUGGAUAAGAGUUUCCGUCUCGUAUCCUGUUACCC (ssRNA, as 82(1) except 2'-OMe C21) [SEQ ID NO: 82(6)], the values for the IC50 in data set [1], in [2] and in data set [3] were under 30 nM, under 3 nM and 0.128 nM, respectively.

As for GGGUCCUGGAUAAGAGTUUCCGUCUCGUAUCCUGUUACCC (ssRNA, as 82(1) except dT17) [SEQ ID NO: 156], the figures for the IC50 in [1], in data set [2] and in data set [4] were under 30 nM, under 3 nM and under 0.1 nM, respectively.

In the case of GGGUCCUGGAUAAGAGUUUCCGUCUCGUAUCCUGUUACCC (ssRNA, as 82(1) except 2'-OMe C32) [SEQ ID NO: 82(13)], the IC50 was 48.8 nM in data set [1], 3.06 nM in data set [2] and 0.146 nM in data set [3].

GGGUCCUGGAUAAGAGUUUCCGUCUCGUAUCCUGUUACCC (ssRNA, as 82(25) except 2'-OMe A15) [SEQ ID NO: 82(42)] gave an IC50 in data set [5] of 0.037 nM.

On to GGGUCCUGGAUAAGAGUUUCCGUCUCGUAUCCUGUUACCC (ssRNA, as 82(1) except 2'-OMe U4,C6,U11,C21,U23,C26,U30,C31,C32,U35,C38-40) [SEQ ID NO: 82(23)], for which the IC50 in data set [1] is under 30 nM; in data set [6], under 0.1 nM.

Take GGGUCCUGGAUAAGAGUUUCCGUCUCGUAUCCTGUUACCC (ssRNA, as 82(1) except dT33) [SEQ ID NO: 158]: the IC50 in [7] is 0.1 nM; in data set [1], under 30 nM; in data set [2], under 3 nM.

GGGUCCUGGAUAAGAGUUUCCGUCUCGUAUCCUGUUACCC (ssRNA, as 82(25) except 2'-OMe A37) [SEQ ID NO: 82(47)] gave an IC50 in [8] of 0.046 nM.

GGGUCCUGAUUAAGAGUUUCCGUCUCGUAAUCUGUUACCC (ssRNA, 2'-OMe G (G8,G34 2'-OH), dA, 2'-F C/U; 5',3' idT) [SEQ ID NO: 76(1)]: the IC50 in data set [9] was 0.117 nM.

As for GGGUCCUGACUAAGAGUUUCCGUCUCGUAGUCUGUUACCC (ssRNA, 2'-OMe G (G8,G34 2'-OH), dA, 2'-F C/U; 5',3' idT) [SEQ ID NO: 77(1)], in [9], the IC50 amounted to 0.126 nM.

B1: SEQ ID NO: 8 (ssRNA)
RNA: GGGAGAACUUCGACCAGAAGAUCCACUGGUACUACGUGACCCCGCAUAGGCAAUCCUGCUUAUGUGCGCAUACAUGGAUCCUC
modifications: 2'-F C and U; 2'-OH G; 2'-H (deoxy) A
With B1, the binding result in [10] was “binds”.

B2: SEQ ID NO: 100 (ssRNA)
RNA: GGGAGAACUUCGACCAGAAGACCAAACGGACUUUAUACCUCUGAGUCGCCUAUGCUCCUAUGUGCGCAUACAUGGAUCCUC
modifications: 2'-F C/U, dA, 2'-OH G
Consider B2, for which the binding result in [11] was “binds”.

B3: SEQ ID NO: 99 (ssRNA)
RNA: GGGAGAACUUCGACCAGAAGUCCAAACGGGACUUUAUACCUCUGAGUCGCCUUUGCUCCUAUGUGCGCAUACAUGGAUCCUC
modifications: 2'-F C/U, dA, 2'-OH G
For the molecule B3, the binding result in [11] is listed as “binds”.
